The text below walks through data of patent publication US20240034813A1 (Janssen / Centocor, published 2024).

In assay [1] the target is T1, recombinant human EGFR/ErbB1/HER1 with C-terminal His tag, Cy5-labeled (human, UniProt P00533 25-645, Cy5 label (reacted with Cy5 Mono NHS Ester; sites not stated)).
T1 construct: Commercial protein; also called Cy5-EGFR; Cy5-labeled EGFR antigen; not shown: C-terminal His tag
Description: competitive TR-FRET (Eu-amivantamab/Cy5-EGFR), EC50 ratio vs Reference Material; Ex. 11 drug product, 3 months at 25 C. From the text: (§1) In this procedure, varying concentrations of unlabeled bispecific EGFR-cMet antibody sample compete with donor fluorophore (Europium (Eu) chelate) labeled bispecific EGFR-cMet antibody for binding to an acceptor fluorophore (Cy5)-labeled EGFR antigen. Excitation of the donor fluorophore results in a transfer of energy to the bound acceptor fluorophore (FRET process). The resultant FRET is detected by emission of light at 665 nm using a microplate reader capable of measuring time-resolved fluorescence. Sample dose response curves are compared to the RM.
(§2) EGFR Binding Materials and Methods. Certified commercial EGFR, a recombinant human EGFR/ErbB1/HER1 with C-terminal His tag is reacted with certified commercial Cy5 Mono NHS Ester to produce Cy5-labeled EGFR. Validated bispecific EGFR-cMet antibody is reacted with certified commercial Europium (Eu) chelate to produce Eu-labeled bispecific EGFR-cMet antibody. […] Fluorescence is then measured by spectrophotometry at 665 nm, plotted against antibody concentration and analyzed by a four-parameter logistic model. The antibody concentration required to obtain half of the maximum fluorescence response (EC50) is determined for RM, assay control and samples. The potencies of assay control and samples are calculated based on the ratio of the sample (or control) and RM EC50 values and reported as a percentage activity relative to the RM.

In assay [2] the target is T2, recombinant cMet/HGFR with c-terminal His-tag, Cy5-labeled (UniProt P08581 25-932, limits assumed, Cy5 label (reacted with Cy5 Mono NHS Ester; sites not stated)).
T2 construct: Commercial protein; also called Cy5-c-MET; Cy5-labeled c-MET antigen; not shown: C-terminal His-tag
Description: competitive TR-FRET (Eu-amivantamab/Cy5-c-MET), EC50 ratio vs Reference Material; Ex. 11 drug product, 0 months, 25 C table.
Text: (§3) In this procedure, varying concentrations of unlabeled bispecific EGFR-cMet antibody sample compete with donor fluorophore (Europium (Eu) chelate) labeled bispecific EGFR-cMet antibody for binding to an acceptor fluorophore (Cy5)-labeled c-MET antigen. Excitation of the donor fluorophore results in a transfer of energy to the bound acceptor fluorophore (FRET process). The resultant FRET is detected by emission of light at 665 nm using a microplate reader capable of measuring time-resolved fluorescence. Sample dose response curves are compared to the Reference Material (RM).
as §2, with “c-MET Binding” for “EGFR Binding”, “commercial cMet,” for “commercial EGFR,”, “recombinant cMet/HGFR” for “recombinant human EGFR/ErbB1/HER1”, “with c-terminal His-tag” for “with C-terminal His tag”, “Cy5-labeled c-MET.” for “Cy5-labeled EGFR.”, “produce Eu labeled” for “produce Eu-labeled”
(Time-resolved FRET reads energy transfer from a long-lived donor to a nearby acceptor.)

In assay [3] the target is T2, recombinant cMet/HGFR with c-terminal …. Description: competitive TR-FRET (Eu-amivantamab/Cy5-c-MET), EC50 ratio vs Reference Material; Ex. 2 Formulation 2 (50 mM histidine), T0, 25 C table.
Text: as §3
as §2, with “c-MET Binding” for “EGFR Binding”, “commercial cMet,” for “commercial EGFR,”, “recombinant cMet/HGFR” for “recombinant human EGFR/ErbB1/HER1”, “with c-terminal His-tag” for “with C-terminal His tag”, “Cy5-labeled c-MET.” for “Cy5-labeled EGFR.”, “produce Eu labeled” for “produce Eu-labeled”

For assay [4] the target is unchanged. Description: competitive TR-FRET (Eu-amivantamab/Cy5-c-MET), EC50 ratio vs Reference Material; Ex. 2 Formulation 1 (10 mM histidine), 3 months at 5 C.
Text: as §3
as §2, with “c-MET Binding” for “EGFR Binding”, “commercial cMet,” for “commercial EGFR,”, “recombinant cMet/HGFR” for “recombinant human EGFR/ErbB1/HER1”, “with c-terminal His-tag” for “with C-terminal His tag”, “Cy5-labeled c-MET.” for “Cy5-labeled EGFR.”, “produce Eu labeled” for “produce Eu-labeled”

For assay [5], the target named is T1, recombinant human EGFR/ErbB1/HER1 with …. Description: competitive TR-FRET (Eu-amivantamab/Cy5-EGFR), EC50 ratio vs Reference Material; Ex. 2 Formulation 2 (50 mM histidine), 3 months at 40 C.
Text: as §1, §2

Assay [6] deals with T2, recombinant cMet/HGFR with c-terminal …. Description: competitive TR-FRET (Eu-amivantamab/Cy5-c-MET), EC50 ratio vs Reference Material; Ex. 2 Formulation 2 (50 mM histidine), T0, 5 C table.
Text: as §3
as §2, with “c-MET Binding” for “EGFR Binding”, “commercial cMet,” for “commercial EGFR,”, “recombinant cMet/HGFR” for “recombinant human EGFR/ErbB1/HER1”, “with c-terminal His-tag” for “with C-terminal His tag”, “Cy5-labeled c-MET.” for “Cy5-labeled EGFR.”, “produce Eu labeled” for “produce Eu-labeled”

The target of assay [7] is T1, recombinant human EGFR/ErbB1/HER1 with …. Description: competitive TR-FRET (Eu-amivantamab/Cy5-EGFR), EC50 ratio vs Reference Material; Ex. 2 Formulation 1 (10 mM histidine), T0, 25 C table.
Text: as §1, §2

The target of assay [8] is T2, recombinant cMet/HGFR with c-terminal …. Description: competitive TR-FRET (Eu-amivantamab/Cy5-c-MET), EC50 ratio vs Reference Material; Ex. 11 drug product, 3 months at 40 C.
Text: as §3
as §2, with “c-MET Binding” for “EGFR Binding”, “commercial cMet,” for “commercial EGFR,”, “recombinant cMet/HGFR” for “recombinant human EGFR/ErbB1/HER1”, “with c-terminal His-tag” for “with C-terminal His tag”, “Cy5-labeled c-MET.” for “Cy5-labeled EGFR.”, “produce Eu labeled” for “produce Eu-labeled”

B1: amivantamab (bispecific antibody, human IgG1, kappa)
heavy 1: not shown
light 1: not shown
heavy 2: not shown
light 2: DIQMTQSPSSVSASVGDRVTITCRASQGISNWLAWFQHKPGKAPKLLIYAASSLLSGVPSRFSGSGSGTDFTLTISSLQPEDFATYYCQQANSFPITFGQGTRLEIKRTVAAPSVFIFPPSDEQLKSGTASVVCLLNNFYPREAKVQWKVDNALQSGNSQESVTEQDSKDSTYSLSSTLTLSKADYEKHKVYACEVTHQGLSSPVTKSFNRGEC
notes: The samples tested were high concentration (160 mg/mL) formulations, fresh or stored or stressed; also called JNJ-61186372; bispecific EGFR-cMet antibody
With B1, in assay [1], the “EGFR Binding activity relative to Reference Material (%)” value was 71%. Also, the “cMET Binding activity relative to Reference Material (%)” value in assay [2] was 85%; in assay [8] it was 78%. The “cMET Binding % activity relative to RM” value is 102% in assay [3], 100% in assay [4] and 102% in assay [6]. Further, the entries for the “EGFR Binding % activity relative to RM” value in assay [5] and in assay [7] were 38% and 103%, respectively.
